± gives the standard deviation of the averaged measurements.
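Further: ATP exposure 15 min at 22 °C before imaging.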

The data set relates to ATP. In words: switch fluorescence ratio, 500 uM ATP over buffer (Cy3 cluster intensity, sum of 5 cycles each) (fold (ratio)); higher = stronger signal-on switching upon ATP binding; sequences stand for … in TCGTCGGCAGCGTCAGATGTGTATAAGAGACAGTTTTTTTTTTTTTTTTTTTTTTTTT…TC. The following applies: aptamer strand: ATP DNA aptamer (quencher-CACCTGGGGGAGTATTGCGGAGGAAGG + anchor), 100 nM annealed; ATP concentration: 500 uM. The procedure, abridged:
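Between each of five buffer/ATP cycles, the flow-cell was stripped with NaOH and re-annealed. Each cycle imaged Cy3-labelled switching-strand clusters, annealed to 100 nM quencher-labelled ATP aptamer on a modified Illumina MiSeq flow-cell, first in selection buffer and then after 15 min with 500 uM ATP at 22 °C. The fluorescence ratio is summed target-cycle over summed buffer-cycle Cy3 intensity per cluster, averaged per switch-domain sequence, with clusters outside 100-1000 RFU excluded.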
AAGGGGGGGA: the switch fluorescence ratio worked out at 1.01 ± 0.046. For the sequence GGGGAAAGTA, the switch fluorescence ratio was determined as 1.03 ± 0.03. In the case of CGGATGTGTT it was 0.951 ± 0.048. As for ATGAGTTGGT, the switch fluorescence ratio was determined as 0.982 ± 0.033. In the case of AATGGGGGTA, the switch fluorescence ratio came to 0.998 ± 0.034. In the case of AAAAGCTGGG it was 1.02 ± 0.051; in that of TTGGGAATAC, 3.23 ± 0.53; in that of GGATTGATTT, 0.993 ± 0.038. As to ATAGCAGTTA, the switch fluorescence ratio came out at 1.02 ± 0.01.

Take GATCAGCCCC: the switch fluorescence ratio was found to be 1.02 ± 0.031. The same measure for TTTGATAATA: 1.02 ± 0.056.

Take TAGTTGAAGG: the switch fluorescence ratio was 0.9942 ± 0.0051. On to TGTTGTTTGG, for which the switch fluorescence ratio came to 1 ± 0.063. The same measure for AGTTGGAGCT: 0.95964 ± 9.2e-05; for CCCCTGTACT: 1.227 ± 0.0074.

With TAGCCTAGTT, the switch fluorescence ratio worked out at 0.963 ± 0.022.

As for ACCATCGATA, the switch fluorescence ratio is 1.03 ± 0.024. Regarding AGAGTTATGC, the switch fluorescence ratio was 1.022 ± 0.01.

For the sequence GTATTGGTCG, the switch fluorescence ratio was determined as 1.058 ± 0.0091. For the sequence GTTAACGTTT, the switch fluorescence ratio is 0.982 ± 0.036.

In the case of ATTAGTGCCG, the switch fluorescence ratio was determined as 1.04 ± 0.14.

For the sequence CTTTTATTTT, the switch fluorescence ratio was 1.03 ± 0.012. The same measure for TTCATTTTGA: 0.967 ± 0.015. For the sequence TGCGGTTGGG, the switch fluorescence ratio was 1.022 ± 0.003.

Regarding GGCACTGGGG, the switch fluorescence ratio amounted to 1.02 ± 0.02. The same measure for GGACGGTATT: 1.08 ± 0.051; for CTTTTCATTG: 1.06 ± 0.089; for TCGAAATATT: 1.55 ± 0.81. In the case of TATTCAGGGG it was 1.03 ± 0.058. The same measure for TAAAGAACCA: 1.016 ± 0.0053; for AAGGTTAATT: 1 ± 0.022.

On to GGGGCGTATG, for which the switch fluorescence ratio came out at 0.993 ± 0.02. The same measure for GCTGGGACTT: 1.004 ± 0.0078; for CCATTAATTT: 1.11 ± 0.17; for CTGGTGTTCT: 1.01 ± 0.017. In the case of GCGGGAGGTC it was 1.03 ± 0.013. In the case of CGGTACCCAT it was 1.01 ± 0.018.

With GGTGTTGGAT, the switch fluorescence ratio was 1.01 ± 0.002. In the case of TAAGTTTTCC it was 1.03 ± 0.032; in that of CTATCGGGGT, 0.993 ± 0.015; in that of TCCTGAGGCG, 1.02 ± 0.022. The same measure for GATTTTGTTG: 0.979 ± 0.014; for TATGTGTGGG: 1.01 ± 0.026.

With TTTTGGTAAA, the switch fluorescence ratio came to 1 ± 0.038.

For CGACTTGCGT, the switch fluorescence ratio is 1.01 ± 0.012. In the case of TGATTTGGCA it was 1.02 ± 0.0023; in that of AATTGGTGTT, 0.985 ± 0.025.

For TCGCTTTTTG, the switch fluorescence ratio amounted to 1.01 ± 0.027. Take AGGGGTAATA: the switch fluorescence ratio was determined as 0.9817 ± 0.006.

With AGGCGGGCGT, the switch fluorescence ratio is 0.9623 ± 0.0022. The same measure for CGTATTGCGT: 1.01 ± 0.025; for GGGTAAATCT: 1.04 ± 0.026. Take TTAAAAGCAG: the switch fluorescence ratio stood at 1.016 ± 0.0045.

Turning to ATATCCGGGA, the switch fluorescence ratio came to 1.03 ± 0.015. In the case of TTTAGCGTCA, the switch fluorescence ratio was 0.9891 ± 0.0056. For GGGACTAGTT, the switch fluorescence ratio amounted to 0.959 ± 0.046.

As to GGAGCAGGCG, the switch fluorescence ratio turned out to be 1.04 ± 0.04. For CATAGTGATG, the switch fluorescence ratio came to 0.986 ± 0.026. In the case of TTGGAATGGA it was 0.989 ± 0.029; in that of GTGAGGAGTA, 1.001 ± 0.0093; in that of TTGAGAAAAG, 1.06 ± 0.099. The same measure for TAATGTATGT: 0.977 ± 0.018. Turning to CGATATAGTC, the switch fluorescence ratio amounted to 0.993 ± 0.049. For GCGTTTGGG, the switch fluorescence ratio turned out to be 1.14 ± 0.15. On to CTTGTTGTTC, for which the switch fluorescence ratio worked out at 0.9981 ± 0.0063. As to TACGAGGTTG, the switch fluorescence ratio came to 1 ± 0.02. In the case of TTTTACAAGA it was 0.996 ± 0.043; in that of TTGGTGCCTT, 1.07 ± 0.033; in that of AAAAGATTTT, 1.06 ± 0.14. Regarding GTTGGTTTTT, the switch fluorescence ratio worked out at 0.975 ± 0.027. The same measure for ACATAATTTC: 1.03 ± 0.02; for GTATTAAACC: 1.06 ± 0.023; for GAGGGTTCGA: 0.987 ± 0.033. The same measure for ACAGTGCGGC: 0.961 ± 0.035; for AGGGGTAGGG: 1.01 ± 0.027; for CTTGATTTGA: 1.001 ± 0.0089. As to ATAAGGCATG, the switch fluorescence ratio stood at 0.975 ± 0.021. For the sequence AGAAAGGGGT, the switch fluorescence ratio worked out at 1.01 ± 0.055.

The values are drawn from the supplement of paper PMC10126150.
